Test [1] concerns the target cynomolgus TIM-3 on isolated cyno CD14+ monocytes (cynomolgus). As to the kind of experiment: flow cytometry, cyno CD14+ monocytes cyno1.
Test [2] has the same target. As to the kind of experiment: flow cytometry, cyno CD14+ monocytes cyno2.
The target is the same in test [3]. Nature of the test: flow cytometry, cyno CD14+ monocytes cyno3.
For test [4], the target named is human TIM-3 on cells (human) (UniProt Q8TDQ0). Nature of the test: flow cytometry, human CD14+ monocytes donor1. On the technique in general: Flow cytometry measures light scatter and fluorescence of single cells or particles in a stream.
Test [5] shares this target. As to the kind of experiment: flow cytometry, human CD14+ monocytes donor2.
The target is the same in test [6]. Nature of the test: flow cytometry, human CD14+ monocytes donor3.
Test [7] shares this target. As to the kind of experiment: FACS competition on RPMI-8226, competitor TIM3-0016.
The target is the same in test [8]. Nature of the test: FACS competition on RPMI-8226, competitor TIM3-0018.
Test [9] has the same target. As to the kind of experiment: FACS competition on RPMI-8226, competitor TIM3-0026.
Test [10] has the same target. Nature of the test: FACS competition on RPMI-8226, competitor TIM3-0038.
For test [11], the target named is cynomolgus Tim3 (ELISA) (cynomolgus). Nature of the test: ELISA, cyno Tim3.
Sequence of cynomolgus Tim3 (ELISA) (cynomolgus) (chain, as listed by the source, form in doubt): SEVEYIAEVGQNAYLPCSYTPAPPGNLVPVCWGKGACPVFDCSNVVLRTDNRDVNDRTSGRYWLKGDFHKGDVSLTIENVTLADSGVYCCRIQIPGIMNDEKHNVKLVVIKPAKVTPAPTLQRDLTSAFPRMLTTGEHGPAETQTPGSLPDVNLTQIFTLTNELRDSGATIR
Test [12] has as its target Tim3-ECD-His-Biotin (human) (UniProt Q8TDQ0). As to the kind of experiment: ELISA, human Tim3.
Test [13] deals with human TIM-3 on cells (human) (UniProt Q8TDQ0). As to the kind of experiment: cell ELISA, CHO-Tim3.
For test [14] the target is unchanged. As to the kind of experiment: cell-based or functional assay.
Test [15] addresses huFc fused dimeric human Tim3-ECD (human) (UniProt Q8TDQ0). Nature of the test: SPR Biacore, antibody captured by anti-mouse IgG. (SPR reads the build-up and loss of mass on a sensor chip optically.)
Test [16] concerns the target monomeric cyno Tim3-ECD (cynomolgus). Nature of the test: SPR Biacore, antibody captured by anti-mouse IgG.
Test [17] deals with monomeric human Tim3-ECD (human) (UniProt Q8TDQ0). As to the kind of experiment: SPR Biacore, antibody captured by anti-mouse IgG.
In test [18] the target is human TIM-3 on cells (human) (UniProt Q8TDQ0). As to the kind of experiment: FACS competition on RPMI-8226, competitor TIM3-0022.
The target is the same in test [19]. As to the kind of experiment: FACS competition on RPMI-8226, competitor TIM3-0028.
The target of test [20] is cynomolgus Tim3 (ELISA) (cynomolgus). As to the kind of experiment: ELISA, cyno Tim3; EC50 relative to the sample's max value. In general terms: ELISA stands for enzyme-linked immunosorbent assay.
Test [21] has as its target Tim3-ECD-His-Biotin (human) (UniProt Q8TDQ0). As to the kind of experiment: ELISA, human Tim3; EC50 relative to the sample's max value.
The target of test [22] is human TIM-3 on cells (human) (UniProt Q8TDQ0). Nature of the test: cell ELISA, CHO-Tim3; EC50 relative to the sample's max value.

Here are results for five substances from patent publication US20210087291A1.

Sequence of monomeric cyno Tim3-ECD (cynomolgus) (chain, as listed by the source, form in doubt): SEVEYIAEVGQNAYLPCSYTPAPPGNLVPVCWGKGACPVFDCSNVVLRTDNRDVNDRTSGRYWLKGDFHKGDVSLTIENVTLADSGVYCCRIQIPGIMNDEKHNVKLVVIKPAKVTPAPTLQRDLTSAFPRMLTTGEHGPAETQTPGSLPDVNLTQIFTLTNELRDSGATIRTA

For the substance M-IgG1 (isotype control) (antibody), the MFI came to 72 MFI in test [1], 82 MFI in [2] and 83 MFI in test [3]. In addition, the specific binding MFI in [4] worked out at 144 MFI; in [5], 55 MFI; in test [6], 213 MFI.

As to M-IgG2b (isotype control) (antibody), the specific binding MFI in test [4] stood at 0 MFI; in test [5], 13 MFI; in test [6] it was 0 MFI.

On to Rat-IgG2A (isotype control) (antibody), for which the values for the MFI in [1], in test [2] and in test [3] were 84 MFI, 86 MFI and 91 MFI, respectively. Besides, the specific binding MFI amounted to 71 MFI in test [4], 68 MFI in [5] and 70 MFI in test [6].

For the substance “anti-TIM3 reference antibody 344823 (R&D Systems)”, the MFI amounted to 158 MFI in [1], 121 MFI in [2] and 143 MFI in [3]. Also, the specific binding MFI in [4] was determined as 1010 MFI; in [5], 917 MFI; in test [6] it was 814 MFI. Further, the Max % inhibition of binding in [7] turned out to be 0%; in test [8], 0%; in [9] it was 3%; in test [10], 99%.

A word on the Kd: it is the equilibrium constant for the complex coming apart. A high value points to lower affinity. Broadly, the EC50 is the concentration giving half of the maximal effect. A higher EC50 goes with lower potency in that assay. Regarding “anti-TIM3 reference antibody F38-2E2 (BioLegend)”, the inflexion point amounted to 210000 ng/mL in [11], 86.3 ng/mL in test [12] and 224 ng/mL in [13]. The substance also displayed an IFN-gamma release in MLR at 1 µg/ml, % of IL-2 control in test [14] of 7%. Besides, the IFN-gamma release in MLR at 10 µg/ml, % of IL-2 control in test [14] came out at 26%. Also, the IFN-gamma release in MLR at 40 µg/ml, % of IL-2 control in test [14] came out at 36%. The MFI in [1] is 135 MFI; in test [2], 136 MFI; in test [3], 124 MFI. In addition, the specific binding MFI in test [4] turned out to be 516 MFI; in test [5], 493 MFI; in test [6] it was 460 MFI. Besides, the equilibrium dissociation constant (Kd) in [15] came out at 7.5 nM; in [16], 168 nM; in [17] it was 13.6 nM. Also, the Max % inhibition of binding in test [7] is -7%; in [8], -6%; in test [18], 77%; in test [9], 2%; in [19], 75%; in [10] it was 94%. Further, the 50% effective concentration (EC50) is 0.423 µg/mL in test [20], 0.0732 µg/mL in [21] and 0.35 µg/mL in [22].
